IntAct's records for PubMed 22056771

Molecular target: T1, atg7_yeast ATG7 (UniProt P38862)
T1 sequence: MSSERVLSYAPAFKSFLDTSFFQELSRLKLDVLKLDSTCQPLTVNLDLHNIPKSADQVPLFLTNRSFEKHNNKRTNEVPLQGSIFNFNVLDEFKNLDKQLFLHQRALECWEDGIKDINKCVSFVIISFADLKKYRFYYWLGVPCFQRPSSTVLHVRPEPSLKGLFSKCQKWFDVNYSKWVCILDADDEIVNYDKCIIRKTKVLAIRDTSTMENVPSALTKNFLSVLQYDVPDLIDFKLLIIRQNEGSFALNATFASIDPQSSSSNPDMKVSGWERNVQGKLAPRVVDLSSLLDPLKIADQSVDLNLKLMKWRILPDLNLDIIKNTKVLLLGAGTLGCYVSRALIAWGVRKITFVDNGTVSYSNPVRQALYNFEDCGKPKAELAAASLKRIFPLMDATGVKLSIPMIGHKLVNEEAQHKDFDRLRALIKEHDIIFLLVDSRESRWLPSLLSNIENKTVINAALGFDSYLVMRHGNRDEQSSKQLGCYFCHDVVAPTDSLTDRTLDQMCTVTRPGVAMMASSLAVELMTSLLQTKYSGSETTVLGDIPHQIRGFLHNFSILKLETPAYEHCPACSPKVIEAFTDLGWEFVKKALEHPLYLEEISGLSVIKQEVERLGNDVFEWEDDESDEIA

## Microtubule-associated protein 1 light chain 3 beta (Homo sapiens) (from UniProt Q9GZQ8) K65Y
  effect of a mutation on the interaction: increasing interaction
